T1: IL-10 receptor (IL-10R), mouse (mouse (endogenous in BMDMs and splenocytes)) (UniProt Q61727)
T1 sequence: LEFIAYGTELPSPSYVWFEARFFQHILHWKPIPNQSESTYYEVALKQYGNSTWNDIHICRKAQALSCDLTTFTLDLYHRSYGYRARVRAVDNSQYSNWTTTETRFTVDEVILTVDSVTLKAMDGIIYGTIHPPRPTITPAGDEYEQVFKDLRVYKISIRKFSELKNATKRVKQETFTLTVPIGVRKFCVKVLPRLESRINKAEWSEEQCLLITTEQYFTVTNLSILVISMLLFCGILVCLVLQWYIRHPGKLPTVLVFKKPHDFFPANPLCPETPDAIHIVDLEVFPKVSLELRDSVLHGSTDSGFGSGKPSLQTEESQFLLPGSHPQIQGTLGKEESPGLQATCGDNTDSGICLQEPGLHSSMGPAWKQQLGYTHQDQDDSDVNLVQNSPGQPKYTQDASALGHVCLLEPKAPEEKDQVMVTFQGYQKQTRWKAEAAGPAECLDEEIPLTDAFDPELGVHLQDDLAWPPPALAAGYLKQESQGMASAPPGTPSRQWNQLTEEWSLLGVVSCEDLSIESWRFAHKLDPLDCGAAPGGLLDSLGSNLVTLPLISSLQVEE


Columns and labels:
[1] = biological target: T1, IL-10 receptor (IL-10R), mouse (mouse (endogenous in BMDMs and splenocytes))
[2] = biological target: T1, IL-10 receptor (IL-10R), mouse (mouse (endogenous in BMDMs and splenocytes)); remark: listed apart in the source
[3] = biological target: T1, IL-10 receptor (IL-10R), mouse (mouse (endogenous in BMDMs and splenocytes)); remark: listed apart in the source
[4] = biological target: T1, IL-10 receptor (IL-10R), mouse (mouse (endogenous in BMDMs and splenocytes)); remark: listed apart in the source

Molecule | ED50 of biological activity, dose-response, data as AUC (Figure 5B) [1] [ng/mL] | ED50, suppression of LPS-induced luciferase in BMDMs (Figure 2H) [2] [ng/mL] | suppression of LPS-induced luciferase in hTNF.LucBAC BMDMs, 10 ng/mL [3] [%] | other results
natural mouse IL-10 with RRCHR changed to AACHR (from UniProt P18893 19-178) (ligand) | 0.96 |  |  | 
natural mouse IL-10 with RRCHR changed to ARCHA (from UniProt P18893 19-178) (ligand) | 59.3 |  |  | 
stable mouse IL-10 dimer, 9 amino acid linker (-G3SG4S-) (ligand) |  | 0.4 |  | 
stable mouse IL-10 dimer, 7 amino acid linker (-G3SG3-) (ligand) |  | 0.45 | 60 | ED50, half-maximal suppression of LPS-induced luciferase in hTNF.LucBAC BMDMs (Figure 2C) [3]: 0.04 ng/mL; ED50 of biological activity, dose-response, data as AUC (Figure 5D) [1]: 0.36 ng/mL
natural mouse IL-10 with RRCHR changed to RACHR (from UniProt P18893 19-178) (ligand) | 0.28 |  |  | 
stable mouse IL-10 dimer, 13 amino acid linker (-G3SG4-SG4-) (ligand) |  | 0.38 |  | 
natural human IL-10 (non-covalently linked) (from UniProt P22301 19-178) (ligand) |  |  |  | ED50, suppression of LPS-induced luciferase in mouse BMDMs (Figure 8A) [4]: 0.87 ng/mL
natural mouse IL-10 (non-covalently linked) (ligand) SRGQYSREDNNCTHFPVGQSHMLLELRTAFSQVKTFFQTKDQLDNILLTDSLMQDFKGYLGCQALSEMIQFYLVEVMPQAEKHGPEIKEHLNSLGEKLKTLRMRLRRCHRFLPCENKSKAVEQVKSDFNKLQDQGVYKAMNEFDIFINCIEAYMMIKMKS | 0.1 | 1.5 | 60 | ED50, half-maximal suppression of LPS-induced luciferase in hTNF.LucBAC BMDMs (Figure 2C) [3]: 0.17 ng/mL
commercial mouse IL-10 (ligand) SRGQYSREDNNCTHFPVGQSHMLLELRTAFSQVKTFFQTKDQLDNILLTDSLMQDFKGYLGCQALSEMIQFYLVEVMPQAEKHGPEIKEHLNSLGEKLKTLRMRLRRCHRFLPCENKSKAVEQVKSDFNKLQDQGVYKAMNEFDIFINCIEAYMMIKMKS |  |  | 60 | 

Source: PMC7431522
